Read-outs that look alike come from different tables or passages of the source.
B1: G glycoprotein: purified G glycoprotein isolated from RSV/A2-infected Vero cells (protein)
chain: MSKNKDQRTAKTLERTWDTLNHLLFISSCLYKLNLKSVAQITLSILAMIISTSLIIAAIIFIASANHKVTPTTAIIQDATSQIKNTTPTYLTQNPQLGISPSNPSEITSQITTILASTTPGVKSTLQSTTVKTKNTTTTQTQPSKPTTKQRQNKPPSKPNNDFHFEVFNFVPCSICSNNPTCWAICKRIPNKKPGKKTTTKPTKKPTLKTTKKDPKPQTTKSKEVPTTKPTEEPTINTTKTNIITTLLTSNTTGNPELTSQMETFHSTSSEGNPSPSQVSTTSEYPSQPSSPPNTPRQ

Tests used:
[1] = target: T1, CX3CR1 (293-CX3CR1 cells) (Homo sapiens, UniProt P49238); experiment: G glycoprotein and Fkn binding to 293-CX3CR1 cells by flow cytometry; conditions: for percent positive staining of CX3CR1-293 cells: representative experiment, FIG. 1
T1 construct: expressed in transfected cells
T1 sequence (P49238 1-355): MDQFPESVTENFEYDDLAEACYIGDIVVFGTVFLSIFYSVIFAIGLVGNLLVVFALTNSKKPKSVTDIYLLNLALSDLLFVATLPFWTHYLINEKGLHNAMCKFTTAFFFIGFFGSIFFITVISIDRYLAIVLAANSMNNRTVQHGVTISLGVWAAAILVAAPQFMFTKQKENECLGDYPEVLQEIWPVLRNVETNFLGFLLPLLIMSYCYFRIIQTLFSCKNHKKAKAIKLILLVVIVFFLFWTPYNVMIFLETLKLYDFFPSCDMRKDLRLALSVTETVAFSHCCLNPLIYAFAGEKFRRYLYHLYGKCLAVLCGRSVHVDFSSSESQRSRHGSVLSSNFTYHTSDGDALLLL
Experimental: Purified G glycoprotein was examined for binding to 293-CX3CR1 cells^33. A pcDNA 3.1 plasmid containing the CX3CR1 gene and a neomycin resistance gene was used to stably transfect human embryonic kidney (HEK) cells. Neomycin resistance was used for selection and maintenance of plasmid transfection of human embryonic kidney cells.
All binding studies were done on ice and either G glycoprotein or human Fkn (R&D Diagnostics, Minneapolis, […]) containing 1% bovine serum albumin (Sigma) and incubated with the 293-CX3CR1 cells or 293 control cells for 30 min at 4° C. […] For inhibition studies, 100 pM-1 μM human Fkn or G glycoprotein was preincubated with the cells for 30 min at 4° C. Without washing, 100 pM of either Fkn or G glycoprotein was added and incubated for 30 min at 4° C. The cells were washed, blocked with FcγRIII blocking antibody (HB197) for 30 min on ice, washed and stained as appropriate with either an anti-G glycoprotein monoclonal antibody cocktail (132-5B, 132-5G, 130-2G, 232-IF) or a biotinylated anti-G glycoprotein monoclonal antibody cocktail (130-2G, 131-2G) or anti-Fkn monoclonal antibody (51637.11; R&D Diagnostics). Concentrations of 1 μg of anti-G glycoprotein monoclonal antibody (131-2G)^34, rabbit anti-CX3CR1 sera^33, and anti-CX3CR1 monoclonal antibody containing 10 μg/ml heparin were used in all experiments. […] Staining was detected with absorbed FITC-goat anti-mouse (H & L chain) monoclonal antibody (PharMingen, San Diego, Calif.) or streptavidin-PE (PharMingen) using flow cytometry (FACScan, Becton-Dickinson, Mountain View, Calif.). A 76 amino acid ^125I-Fkn polypeptide comprising the […] (NEN, Boston, Mass.) was used in radioligand studies^33. As a control, the void volume following purified G glycoprotein passaged over an anti-G glycoprotein antibody (130-2G) affinity column was examined by flow cytometry for binding to either 293 or 293-CX3CR1 cells.
The receptor for Fkn, CX3CR1, was previously identified and characterized using anti-CX3CR1 rabbit antiserum and CX3CR1-transfected human embryonic kidney cells (293-CX3CR1 cells)^33.
The percent Fkn-maximum binding was calculated using the equation: [% G (or Fkn) 293-CX3CR1]-[% G (or Fkn) 293]/[% Fkn (10 nM) 293-CX3CR1]-[% Fkn (10 nM) 293], where G=G glycoprotein, Fkn=fractalkine, 293-CX3CR1=CX3CR1-transfected 293, 293=untransfected 293. The concentration of G glycoprotein was estimated using a molecular weight of 90 kD.

[2] = test system: bronchoalveolar leukocytes (BAL); experiment: BAL cell infiltration and cell types in RSV-infected mice following in vivo peptide treatment; parameters: species or system BALB/c mice; conditions: in words; for total BAL numbers compared to mice treated with RT34, Δ−1 or PBS: day 3 pi; for course of BAL numbers: from day 3 to day 14 pi
Text: Total pulmonary leukocyte trafficking following treatment of mice with peptides containing a CX3C motif (RT33 and EYp1) (A) or peptides without a CX3C motif (RT34, Δ+1, Δ−1)(B).
Flow cytometry results following treatment (d−1) of mice with PBS, RT33, RT34, Δ+1, Δ−1 and EYp1 peptides (100 μm). BAL cells were stained with antibodies against B220^+ (A, D, G), CD3^+ (B, E, H) and CD11b^+ (C, F, I) cells. Data is expressed as the total BAL cells/lung±SEM at days 3, 5, 7 and 14 post-infection. A representative experiment from 3 independent experiments is shown.
Flow cytometry results following treatment (d−1) of mice with PBS, RT33, RT34, Δ+1, Δ−1 and EYp1 peptides (100 μm). BAL cells were stained with antibodies against NK (DX5^+) (A, C, E) and PMN (RB6-8C5^+) cells (B, D, F). Data is expressed as the total BAL cells/lung±SEM at days 3, 5, 7 and 14 post-infection. A representative experiment from 3 independent experiments is shown.
On day −1, prior to RSV infection, mice were i.p. treated (0.1 ml/mouse) with 100 μM of G glycoprotein peptides RT33 (CWAIC) (SEQ ID NO: 12), RT34 (lacks the CX3C motif) or peptides with changes in the CX3C motif (Δ+1, Δ−1, EYp1). Control mice were treated with PBS containing a similar dilution of DMSO used to solubilize the peptides.
Mice were anesthetized with Avertin and exsanguinated by severing the right caudal artery. Bronchoalveolar leukocyte (BAL) cells were harvested by lung lavage with PBS containing 1% bovine serum albumin (BSA, Sigma). The procedure used for extracellular staining of BAL cells was modified for microculture staining as described (55,57). Briefly, BAL cells were washed in Dulbecco's PBS (GIBCO) containing 1% bovine serum albumin (Sigma), blocked with 10% normal mouse sera diluted in PBS containing 1% bovine serum albumin, and then stained (4° C., 30 min) with an appropriate dilution of FITC-conjugated or PE-conjugated anti-CD3ε (145-2C11), anti-CD45R/B220 (RA3-6B2), anti-CD8 (Ly-2), anti-neutrophil (PMN) (RB6-8C5), anti-CD11b (M1/70) and isotype antibody controls (all from Pharmingen, San Diego, Calif.).

[3] = target: T2, Fkn binding to 293-CX3CR1 cells (Homo sapiens, UniProt P49238)
T2 construct: host or cells: HEK 293 cells stably transfected with CX3CR1

[4] = 10 nM ligand, 293-CX3CR1 minus 293 binding relative to 10 nM Fkn

Molecule | Fkn-Maximum Binding (%) ([1]; 10 pM ligand) | Fkn-Maximum Binding (%) ([1]; 100 pM ligand) | Fkn-Maximum Binding (%) ([1]; 1 nM ligand) | Fkn-Maximum Binding (%) [1, 4] | percent positive staining of CX3CR1-293 cells ([1]; 10 nM ligand) | concentration saturating 293-CX3CR1 binding ([1]; 30 min at 4° C.) | total BAL numbers compared to mice treated with RT34, Δ−1 or PBS [2] | course of BAL numbers [2] | numbers of BAL cell types (B220+, CD3+, CD11b+, NK, PMN) ([2]; days 3, 5, 7 and 14 pi) | Range of Inhibition (%) of Fkn binding ([3]; heparin 5 μg/ml + peptide 1 μM) | binding to 293-CX3CR1 cells ([1]; wheat germ lectin column fraction (G, F glycoprotein) or purified recombinant polyhistidine-tagged G glycoprotein) | Range of Inhibition (%) of Fkn binding ([3]; heparin 5 μg/ml + G glycoprotein 10 nM)
Fkn: CX3C chemokine fractalkine (R&D), ligand of CX3CR1 [reference compound] | 46% | 98% | 99% | 98% | 88% | 1 to 10 nM | – | – | – | – | – | –
TCWAIACKRIPNK [Δ + 1] | – | – | – | – | – | – | reduced BAL infiltrate | increased | – | – | – | –
TCWAICKRIPNK [RT33] | – | – | – | – | – | – | reduced BAL numbers | declined | reduced numbers of BAL cell types | 70-80% | – | –
B1 | 40% | 80% | 87% | 88% | 84% | – | – | – | – | – | 70% | 80-85%

— patent US8173131B2, “Compositions and methods for modulating RSV infection and immunity” (PerkinElmer Health Sciences, Inc., priority 2000, dated 2012)
